In patent US20260035452A1, “NOVEL INTERLEUKIN-17A (IL-17A)-DERIVED PEPTIDE AND NEUTRALIZING ANTIBODY (AB17-IPL-1)” (THE UNIVERSITY OF BIRMINGHAM, priority 2022, published 2026):

Molecular target: IL-17 (used on human synovial fibroblasts, Example 9)
Assay: cell-based or functional assay

IL-6 production by human RA fibroblasts stimulated with IL-17 (10 ng/ml) and TNF-α (100 U/ml); 3662.05 µg/ml without antibody; antibody at 10 µg/ml: 2320 µg/mL
Substance: MAB421 (antibody)
